Data from patent US20080305522A1 (MITSUKAN GROUP, published 2008).

T1: recombinant NBS secreted by Aspergillus oryzae NS-NAB2 (three Gly residues before the N terminus) (Curculigo latifolia, UniProt P19667 23-136)
T1 construct: Expressed as an alpha-amylase fusion and cleaved at Lys-Arg by a KEX2-like protease; also called 11 kDa band of recombinant neoculin
T1 sequence: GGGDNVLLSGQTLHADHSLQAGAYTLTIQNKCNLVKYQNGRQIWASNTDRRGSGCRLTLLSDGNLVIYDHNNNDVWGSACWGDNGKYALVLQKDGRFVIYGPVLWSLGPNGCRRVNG

T2: polypeptide NBS (neoculin basic subunit), purified from the fruit of Curculigo latifolia (Curculigo latifolia, UniProt P19667 23-136)
T2 construct: Subunit of native neoculin, without a sugar chain; It has 115 residues: curculin B plus one extra C-terminal Gly; also called 11 kDa subunit
T2 sequence: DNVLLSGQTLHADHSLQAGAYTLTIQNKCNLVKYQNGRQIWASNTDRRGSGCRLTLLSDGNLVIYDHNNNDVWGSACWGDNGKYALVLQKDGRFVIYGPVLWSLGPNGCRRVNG


Assays:
[1] = biological target: T1, recombinant NBS secreted by Aspergillus …; assay: phenyl hydrophobic column fractions, SDS-PAGE under reducing/non-reducing conditions and western blotting
[2] = biological target: the molecule itself; assay: as above
[3] = biological target: T2, polypeptide NBS (neoculin basic …); assay: SDS-PAGE under reducing and non-reducing conditions, CBB staining, native neoculin
Experimental: 2.5 μg of the purified neoculin powder obtained above in (1) to (3) was subjected to SDS-PAGE under reducing conditions or non-reducing conditions at a gel concentration of 15% and subsequently to CBB staining. […] Thus, the individual subunits were designated as neoculin acidic subunit (NAS) and neoculin basic subunit (NBS).

binding result [1] | binding result [3] | Binder | binding result [2]
binds | – | recombinant NAS secreted by Aspergillus oryzae NS-NAB2 (three Gly residues before the N terminus) (other, Expressed as an alpha-amylase fusion and cleaved at Lys-Arg by a KEX2-like protease; Glycosylation in the koji mold is not described; also called 13 kDa band of recombinant neoculin) GGGDSVLLSGQTLYAGHSLTSGSYTLTIQNNCNLVKYQHGRQIWASDTDGQGSQCRLTLRSDGNLIIYDDNNMVVWGSDCWGNNGTYALVLQQDGLFVIYGPVLWPLGLNGCRSLN | binds
– | binds | polypeptide NAS (neoculin acidic subunit), purified from the fruit of Curculigo latifolia (other, N-linked sugar chain, mannose/N-acetylglucosamine/fucose/xylose at a ratio of about 3/2/1/1; binding site 'may possibly be asparagine-81' of SEQ ID NO.2, Subunit of native neoculin; It separates from NBS only under reducing conditions in SDS-PAGE; also called 13 kDa subunit) DSVLLSGQTLYAGHSLTSGSYTLTIQNNCNLVKYQHGRQIWASDTDGQGSQCRLTLRSDGNLIIYDDNNMVVWGSDCWGNNGTYALVLQQDGLFVIYGPVLWPLGLNGCRSLN | –
